# Laboratory results published in the supplement of paper PMC10567573.
# B1: PTPN9 (parent)
# chain: ILFSLPPALDWDSVHVPGPHAMTI
# Variants of: B1
# Experiment: protein stability index of a GFP-peptide fusion (GPS, HEK-293T) (PSI 1-6); higher = more stable
# Conditions: c terminus: a fixed tail appended
# 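Also: lentivirally expressed fusions sorted by FACS into six bins by GFP to DsRed ratio, PSI derived from sequencing read proportions per bin multiplied by bin number.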
row,Variant,protein stability index
1,ILFSRPPALDWDSVHVPGPHAMTI,2.93
2,ILFSCPPALDWDSVHVPGPHAMTI,2.26
3,ILFSWPPALDWDSVHVPGPHAMTI,2
4,ILFSQPPALDWDSVHVPGPHAMTI,1.47
5,ILFSIPPALDWDSVHVPGPHAMTI,1.33
6,ILFSVPPALDWDSVHVPGPHAMTI,3.76
7,ILFSKPPALDWDSVHVPGPHAMTI,2.25
8,ILFSMPPALDWDSVHVPGPHAMTI,2.3
9,KLFSLPPALDWDSVHVPGPHAMTI,2.24
10,GLFSLPPALDWDSVHVPGPHAMTI,2.6
11,SLFSLPPALDWDSVHVPGPHAMTI,1.99
12,PLFSLPPALDWDSVHVPGPHAMTI,1.93
13,VLFSLPPALDWDSVHVPGPHAMTI,3.38
14,TLFSLPPALDWDSVHVPGPHAMTI,2.28
15,QLFSLPPALDWDSVHVPGPHAMTI,1.7
16,CLFSLPPALDWDSVHVPGPHAMTI,1.64
17,NLFSLPPALDWDSVHVPGPHAMTI,1.8
18,LLFSLPPALDWDSVHVPGPHAMTI,1.85
19,YLFSLPPALDWDSVHVPGPHAMTI,2.41
20,DLFSLPPALDWDSVHVPGPHAMTI,2.17
21,WLFSLPPALDWDSVHVPGPHAMTI,1.93
22,RLFSLPPALDWDSVHVPGPHAMTI,2.17
23,FLFSLPPALDWDSVHVPGPHAMTI,1.76
24,HLFSLPPALDWDSVHVPGPHAMTI,1.56

row,Variant,protein stability index
1,MLFSLPPALDWDSVHVPGPHAMTI,1.7
2,ELFSLPPALDWDSVHVPGPHAMTI,1.71
3,ALFSLPPALDWDSVHVPGPHAMTI,2.03
4,IGFSLPPALDWDSVHVPGPHAMTI,1.68
5,ITFSLPPALDWDSVHVPGPHAMTI,2.62
6,IKFSLPPALDWDSVHVPGPHAMTI,2.73
7,IRFSLPPALDWDSVHVPGPHAMTI,1.7
8,IDFSLPPALDWDSVHVPGPHAMTI,1.26
9,IQFSLPPALDWDSVHVPGPHAMTI,2.47
10,IMFSLPPALDWDSVHVPGPHAMTI,3.37
11,IFFSLPPALDWDSVHVPGPHAMTI,2.06
12,IPFSLPPALDWDSVHVPGPHAMTI,1.93
13,INFSLPPALDWDSVHVPGPHAMTI,2.6
14,IWFSLPPALDWDSVHVPGPHAMTI,2.54
15,IHFSLPPALDWDSVHVPGPHAMTI,2.3
16,IEFSLPPALDWDSVHVPGPHAMTI,2.29
17,IVFSLPPALDWDSVHVPGPHAMTI,2.54
18,ICFSLPPALDWDSVHVPGPHAMTI,3.86
19,IIFSLPPALDWDSVHVPGPHAMTI,3.33
20,IAFSLPPALDWDSVHVPGPHAMTI,2.12
21,ILFSLPPALKWDSVHVPGPHAMTI,3.67
22,ILFSLPPALNWDSVHVPGPHAMTI,1.73
23,ILFSLPPALWWDSVHVPGPHAMTI,1.9
24,ILFSLPPALHWDSVHVPGPHAMTI,3.79

row,Variant,protein stability index
1,ILFSLPPALFWDSVHVPGPHAMTI,2.68
2,ILFSLPPALLWDSVHVPGPHAMTI,2.22
3,ILFSLPPALTWDSVHVPGPHAMTI,2.95
4,ILFSLPPALIWDSVHVPGPHAMTI,2.2
5,ILFSLPPALEWDSVHVPGPHAMTI,1.63
6,ILFSLPPALGWDSVHVPGPHAMTI,2.28
7,ILFSLPPALVWDSVHVPGPHAMTI,2.05
8,ILFSLPPALAWDSVHVPGPHAMTI,2.86
9,ILFSLPPALMWDSVHVPGPHAMTI,3.42
10,ILFSLPPAFDWDSVHVPGPHAMTI,2.33
11,ILFSLPPAIDWDSVHVPGPHAMTI,1.96
12,ILFSLPPAYDWDSVHVPGPHAMTI,4.25
13,ILFSLPPADDWDSVHVPGPHAMTI,1.83
14,ILFSLPPAEDWDSVHVPGPHAMTI,1.93
15,ILFSLPPAADWDSVHVPGPHAMTI,2.29
16,ILFSLPPACDWDSVHVPGPHAMTI,2.52
17,ILFSLPPASDWDSVHVPGPHAMTI,3.08
18,ILFSLPPATDWDSVHVPGPHAMTI,3.24
19,ILFSLPPAKDWDSVHVPGPHAMTI,2.63
20,ILFSLPPAGDWDSVHVPGPHAMTI,3.71
21,ILFSLPPAWDWDSVHVPGPHAMTI,4.62
22,ILFSLPPANDWDSVHVPGPHAMTI,2.8
23,ILFSLPPARDWDSVHVPGPHAMTI,2.07
24,ILFSLPPAMDWDSVHVPGPHAMTI,2.52

row,Variant,protein stability index
1,ILFSLPPILDWDSVHVPGPHAMTI,1.81
2,ILFSLPPRLDWDSVHVPGPHAMTI,2.43
3,ILFSLPPWLDWDSVHVPGPHAMTI,2.68
4,ILFSLPPNLDWDSVHVPGPHAMTI,2.04
5,ILFSLPPDLDWDSVHVPGPHAMTI,1.92
6,ILFSLPPTLDWDSVHVPGPHAMTI,3.32
7,ILFSLPPCLDWDSVHVPGPHAMTI,3.81
8,ILFSLPPMLDWDSVHVPGPHAMTI,4.44
9,ILFSLPPQLDWDSVHVPGPHAMTI,3.82
10,ILFSLPPSLDWDSVHVPGPHAMTI,3.4
11,ILFSLPPKLDWDSVHVPGPHAMTI,2.87
12,ILFSLPPGLDWDSVHVPGPHAMTI,2.36
13,ILFSLPPFLDWDSVHVPGPHAMTI,3.41
14,ILFSLPPHLDWDSVHVPGPHAMTI,2.5
15,ILFSLPPALDGDSVHVPGPHAMTI,2.23
16,ILFSLPPALDIDSVHVPGPHAMTI,3.5
17,ILFSLPPALDADSVHVPGPHAMTI,3.48
18,ILFSLPPALDDDSVHVPGPHAMTI,1.75
19,ILFSLPPALDEDSVHVPGPHAMTI,1.57
20,ILFSLPPALDCDSVHVPGPHAMTI,3.67
21,ILFSLPPALDHDSVHVPGPHAMTI,2
22,ILFSLPPALDFDSVHVPGPHAMTI,3.1
